Key:
Assay in all cases: ELISA, coated CR6261, P. pastoris medium
11F4 = conditions: remark: other sources report otherwise
11H6 = conditions: remark: other sources report otherwise
1F2 = conditions: remark: other sources report otherwise
27B10 = conditions: remark: other sources report otherwise
29C2 = conditions: remark: other sources report otherwise
2C4 = conditions: remark: other sources report otherwise
36D6 = conditions: remark: other sources report otherwise
36E4 = conditions: remark: other sources report otherwise
36H2 = conditions: remark: other sources report otherwise
48B10 = conditions: remark: other sources report otherwise
54H4 = conditions: remark: other sources report otherwise
56D2 = conditions: remark: other sources report otherwise
56F8 = conditions: remark: other sources report otherwise
57B8 = conditions: remark: other sources report otherwise
63C3 = conditions: remark: other sources report otherwise
63D3 = conditions: remark: other sources report otherwise
67C10 = conditions: remark: other sources report otherwise
6E12 = conditions: remark: other sources report otherwise
70F6 = conditions: remark: other sources report otherwise
71A4 = conditions: remark: other sources report otherwise
71C4 = conditions: remark: other sources report otherwise
71H2 = conditions: remark: other sources report otherwise
72D4 = conditions: remark: other sources report otherwise
74H9 = conditions: remark: other sources report otherwise
75E9 = conditions: remark: other sources report otherwise
76A10 = conditions: remark: other sources report otherwise
78F11 = conditions: remark: other sources report otherwise
78G2 = conditions: remark: other sources report otherwise
79C2 = conditions: remark: other sources report otherwise
79F8 = conditions: remark: other sources report otherwise
7B6 = conditions: remark: other sources report otherwise
7D9 = conditions: remark: other sources report otherwise
81F11 = conditions: remark: other sources report otherwise
84B8 = conditions: remark: other sources report otherwise
850 = conditions: remark: other sources report otherwise
85A7 = target: 85A7
86B3 = conditions: remark: other sources report otherwise
86F1 = conditions: remark: other sources report otherwise
87H5 = conditions: remark: other sources report otherwise
88C5 = conditions: remark: other sources report otherwise
89F11 = conditions: remark: other sources report otherwise
8A10 = conditions: remark: other sources report otherwise
8D7 = conditions: remark: other sources report otherwise
90A9 = conditions: remark: other sources report otherwise
91C4 = conditions: remark: other sources report otherwise
96H8 = conditions: remark: other sources report otherwise
9C10 = conditions: remark: other sources report otherwise
9C6 = conditions: remark: other sources report otherwise

B1: CR6261 (antibody, V domains shown)
VH: EVQLVESGAEVKKPGSSVKVSCKASGGPFRSYAISWVRQAPGQGPEWMGGIIPIFGTTKYAPKFQGRVTITADDFAGTVYMELSSLRSEDTAMYYCAKHMGYQVRETMDVWGKGTTVTVSS
VL: QSVLTQPPSVSAAPGQKVTISCSGSSSNIGNDYVSWYQQLPGTAPKLLIYDNNKRPSGIPDRFSGSKSGTSATLGITGLQTGDEANYYCATWDRRPTAYVVFGGGTKLTVLG
For B1, which CR6261 binding signal (11F4) is on record?
The CR6261 binding signal was 151000.

What about the CR6261 binding signal (11H6) of the same binder?
Its CR6261 binding signal is 427000.

What about the CR6261 binding signal (1F2) of the same binder?
Its CR6261 binding signal is 149000.

And the CR6261 binding signal (27B10)?
The CR6261 binding signal was 187000.

What about the CR6261 binding signal (29C2) of the same binder?
The CR6261 binding signal was 178000.

What about the CR6261 binding signal (2C4) of the same binder?
Its CR6261 binding signal is 258000.

What about the CR6261 binding signal (36D6) of the same binder?
The CR6261 binding signal was 71300.

What about the CR6261 binding signal (36E4) of the same binder?
Its CR6261 binding signal is 196000.

What about the CR6261 binding signal (36H2) of the same binder?
The CR6261 binding signal was 171000.

What about the CR6261 binding signal (48B10) of the same binder?
Its CR6261 binding signal is 103000.

What about the CR6261 binding signal (54H4) of the same binder?
Its CR6261 binding signal is 292000.

And the CR6261 binding signal (56D2)?
Its CR6261 binding signal is 146000.

What about the CR6261 binding signal (56F8) of the same binder?
The CR6261 binding signal was 235000.

What about the CR6261 binding signal (57B8) of the same binder?
The CR6261 binding signal was 58400.

And the CR6261 binding signal (63C3)?
The CR6261 binding signal was 188000.

What about the CR6261 binding signal (63D3) of the same binder?
Its CR6261 binding signal is 146000.

And the CR6261 binding signal (67C10)?
Its CR6261 binding signal is 306000.

What about the CR6261 binding signal (6E12) of the same binder?
Its CR6261 binding signal is 373000.

What about the CR6261 binding signal (70F6) of the same binder?
Its CR6261 binding signal is 419000.

What about the CR6261 binding signal (71A4) of the same binder?
Its CR6261 binding signal is 1.05e+06.

And the CR6261 binding signal (71C4)?
The CR6261 binding signal was 1.35e+06.

And the CR6261 binding signal (71H2)?
The CR6261 binding signal was 1.11e+06.

And the CR6261 binding signal (72D4)?
Its CR6261 binding signal is 330000.

And the CR6261 binding signal (74H9)?
Its CR6261 binding signal is 1.28e+06.

What about the CR6261 binding signal (75E9) of the same binder?
Its CR6261 binding signal is 135000.

And the CR6261 binding signal (76A10)?
Its CR6261 binding signal is 137000.

What about the CR6261 binding signal (78F11) of the same binder?
Its CR6261 binding signal is 84100.

And the CR6261 binding signal (78G2)?
The CR6261 binding signal was 56700.

What about the CR6261 binding signal (79C2) of the same binder?
Its CR6261 binding signal is 364000.

And the CR6261 binding signal (79F8)?
Its CR6261 binding signal is 185000.

What about the CR6261 binding signal (7B6) of the same binder?
Its CR6261 binding signal is 60400.

What about the CR6261 binding signal (7D9) of the same binder?
The CR6261 binding signal was 77800.

And the CR6261 binding signal (81F11)?
Its CR6261 binding signal is 318000.

What about the CR6261 binding signal (84B8) of the same binder?
The CR6261 binding signal was 582000.

And the CR6261 binding signal 850?
Its CR6261 binding signal is 196000.

And the CR6261 binding signal (85A7)?
The CR6261 binding signal was 236000.

And the CR6261 binding signal (86B3)?
The CR6261 binding signal was 901000.

And the CR6261 binding signal (86F1)?
The CR6261 binding signal was 159000.

And the CR6261 binding signal (87H5)?
The CR6261 binding signal was 78100.

What about the CR6261 binding signal (88C5) of the same binder?
The CR6261 binding signal was 471000.

And the CR6261 binding signal (89F11)?
The CR6261 binding signal was 84800.

And the CR6261 binding signal (8A10)?
Its CR6261 binding signal is 360000.

And the CR6261 binding signal (8D7)?
Its CR6261 binding signal is 73400.

What about the CR6261 binding signal (90A9) of the same binder?
The CR6261 binding signal was 414000.

And the CR6261 binding signal (91C4)?
The CR6261 binding signal was 1.16e+06.

What about the CR6261 binding signal (96H8) of the same binder?
Its CR6261 binding signal is 206000.

What about the CR6261 binding signal (9C10) of the same binder?
Its CR6261 binding signal is 114000.

And the CR6261 binding signal (9C6)?
Its CR6261 binding signal is 271000.

Source: patent US20170209564A1
